The assay concerns the target Sialic acid-binding immunoglobulin-like lectin 8 (SIGLEC-8), antigen of the Carterra SPR studies (UniProt Q9NYZ4). As to the kind of experiment: SPR cross-reactivity table.

Sialic acid-binding immunoglobulin-like lectin 8 (SIGLEC-8), antigen of the Carterra SPR studies, sequence (Q9NYZ4 17-363 limits assumed): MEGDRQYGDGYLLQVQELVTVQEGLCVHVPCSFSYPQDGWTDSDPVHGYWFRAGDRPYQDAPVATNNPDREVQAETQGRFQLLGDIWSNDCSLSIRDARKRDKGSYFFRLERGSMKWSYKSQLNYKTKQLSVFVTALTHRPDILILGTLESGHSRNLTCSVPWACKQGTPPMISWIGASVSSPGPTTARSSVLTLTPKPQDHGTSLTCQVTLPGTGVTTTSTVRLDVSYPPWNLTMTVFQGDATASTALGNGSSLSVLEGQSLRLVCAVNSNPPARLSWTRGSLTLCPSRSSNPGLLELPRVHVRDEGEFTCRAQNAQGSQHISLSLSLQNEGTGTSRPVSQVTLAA

Control (antibody) gave a Kd of 0.031 nM.

One may read the Kd as the constant that tells how readily two partners part at equilibrium. Read a low Kd as a tighter complex.

These data come from US20260001953A1.
